Biological target: FOXA1 (UniProt P55317)
Assay: endogenous co-IP with FOXA1 antibody
Conditions: reference: wild type; sites T603

binding against the reference: stronger
Substance: MED15 (from UniProt Q96RN5) T603A knock-in

Source: PMC12365249
